Test results taken from patent CN111748580A.
Blank lines part the entries; values can stand above or below the molecule they belong to.

Experiments:
[1] = target: CD33SP-OKT3scFv-CD28TC (鼠抗人CD3抗体 OKT3单链抗体, shown on CHO cells); assay: flow cytometry, 40 nM Biotin-Protein L on CHO cells transfected with OKT3scFv, Streptavidin PE
[2] = target: 全长的人CD226 (hCD226) on Jurkat cells (human) (UniProt Q15762); assay: flow cytometry on Jurkat cells transfected with TIGIT and CD226
[3] = target: T1, PVR (Poliovirus receptor) expressed on CHO-OKT3 cells (Homo sapiens (Human)) (UniProt P15151); assay: flow cytometry, 40 nM TIGIT-Fc on CHO-OKT3 cells transfected with PVR, anti-human Fc-PE
T1 sequence: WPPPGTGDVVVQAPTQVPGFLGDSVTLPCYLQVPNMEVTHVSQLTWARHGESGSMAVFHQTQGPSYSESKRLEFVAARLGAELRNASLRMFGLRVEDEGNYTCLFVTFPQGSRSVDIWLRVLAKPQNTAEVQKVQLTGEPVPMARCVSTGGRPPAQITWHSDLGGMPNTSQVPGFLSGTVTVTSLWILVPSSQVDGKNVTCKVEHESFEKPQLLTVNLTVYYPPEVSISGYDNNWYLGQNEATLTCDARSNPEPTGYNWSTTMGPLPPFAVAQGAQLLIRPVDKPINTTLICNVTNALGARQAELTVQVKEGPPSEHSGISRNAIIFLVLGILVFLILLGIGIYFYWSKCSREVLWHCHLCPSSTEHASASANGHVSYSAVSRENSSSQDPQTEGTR

CD33SP-OKT3scFv-CD28TC (鼠抗人CD3抗体 OKT3单链抗体, shown on CHO cells), sequence (scFv, as listed by the source): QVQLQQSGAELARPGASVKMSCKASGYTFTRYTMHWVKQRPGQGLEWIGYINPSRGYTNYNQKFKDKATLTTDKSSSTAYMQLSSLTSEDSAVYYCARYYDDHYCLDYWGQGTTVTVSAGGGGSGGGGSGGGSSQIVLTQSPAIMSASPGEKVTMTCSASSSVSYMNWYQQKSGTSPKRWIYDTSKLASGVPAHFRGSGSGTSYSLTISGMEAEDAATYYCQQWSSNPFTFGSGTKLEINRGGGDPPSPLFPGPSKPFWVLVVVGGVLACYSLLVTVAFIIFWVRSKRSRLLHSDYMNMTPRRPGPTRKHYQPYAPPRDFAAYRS
UniProt Q15762, sequence (Q15762 19-336 limits assumed): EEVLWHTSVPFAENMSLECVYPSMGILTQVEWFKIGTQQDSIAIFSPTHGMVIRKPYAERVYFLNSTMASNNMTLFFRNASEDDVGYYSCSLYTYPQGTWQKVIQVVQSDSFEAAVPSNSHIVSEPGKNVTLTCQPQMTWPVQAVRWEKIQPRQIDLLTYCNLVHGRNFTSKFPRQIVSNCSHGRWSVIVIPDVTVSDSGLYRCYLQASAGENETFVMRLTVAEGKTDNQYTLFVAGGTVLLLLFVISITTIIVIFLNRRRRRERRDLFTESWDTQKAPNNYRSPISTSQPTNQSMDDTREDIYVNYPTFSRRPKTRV

阳性率 (percent positive cells) [1]: 42.6%
Molecule: Biotin-Protein L (金斯瑞生物科技, 货号 M00097)

细胞阳性率 (percent positive cells) [2]: 12.7%
Molecule: anti-CD226 PE (R&D Systems, Inc. #FAB666P) (antibody)

阳性率 (percent positive cells) [3]: 93.2%
B1: TIGIT-Fc蛋白 (Fc fusion, UniProt Q495A1 22-141, looked up, not shown: a dimerising Fc or GST)
chain: MMTGTIETTGNISAEKGGSIILQCHLSSTTAQVTQVNWEQQDQLLAICNADLGWHISPSFKDRVAPGPGLGLTLQSLTVNDTGEYFCIYHTYPDGTYTGRIFLEVLESSVAEHGARFQIP
